In US9587002B2, “Sequence of nucleotides and peptides GSE 24.2 of dyskerin, which can induce telomerase activity, method for obtaining same, therapeutic compositions and applications thereof” (CONSEJO SUPERIOR DE INVESTIGACIONES CIENTIFICAS, priority 2005, dated 2017):
“Also recorded” adds a separate entry of the source.

Assays:
JNK = test: Activation of JNK by cisplatin in 293T cell lines (Western blot); assay type: cell-based, human; conditions: 293T cells stably expressing GSE 24.2 vs pLNCX; cisplatin 6 hours
Method: (§1) FIG. 2.—Cell viability and activation of the JNK and p38 death pathways in 293T cell lines: pLNCX and 24.2, treated with cisplatin. A) Cell viability. After seeding the 293T cells: expressing the empty vector (pLNCX) and GSE 24.2 (24.2) in 24-well plates, they were incubated with concentrations between 0-100 μg/ml of cisplatin. The cell viability was measured by means of the crystal violet technique after 72 hours of exposure to the drug. The data represent the mean of two experiments performed in quadruplicate. B) Activation kinetics. Subsequently, the activation of JNK and p38 was studied using antibodies that specifically recognise the active forms. As a load control, the levels of JNK-1 were detected.
The pLNCX24-2 plasmid containing GSE of the same name was transfected in a stable manner in the 293T cells and, as a control, the pLNCX empty vector was transfected. After verifying, by means of PCR, that the 24.2 cell line contained this insert (data not shown), the response to cisplatin was studied, creating a viability curve with this drug. […] JNK and p38 are MAPKs that are activated in response to genotoxic agents (Sanchez-Perez et al., 1998).
Western Blot and antibodies. 20 μg of protein were separated in SDS-polyacrylamide gels; subsequently, they were transferred to Immobilon-P membranes (Millipore) by humid transfer. […]

293T cells = test: Cell viability of 293T cell lines treated with cisplatin (crystal violet); assay type: cell-based, human; conditions: 293T cells stably expressing the construct vs empty vector pLNCX; cisplatin 0-100 μg/ml, 72 hours
Method: as §1
FIG. 4.—Viability of the 293T cell lines: pLNCX, 24.2, DSK5′ and DSK treated with cisplatin. The cell lines described above (pLNCX and 24.2), the DSK 5′ cell line, which expresses a fragment of dyskerin described in the preceding figure, and a fourth one that overexpresses the complete cDNA of dyskerin (DSK) have been used. The viability was analyzed as shown in FIG. 1 A. The data represent the mean of two experiments performed in quadruplicate. […]
Growth curves. […] The number of cells was determined by estimating the absorbance at 595 nm. […]

B1: GSE 24.2: 165-pb cDNA fragment (nucleotides 268 to 433) of human dyskerin, SEQ ID NO1, encoding peptide SEQ ID NO2, expressed from pLNCX plasmid (nucleic acid, listed as Homo sapiens)
DNA: GGTTTCATTAATCTTGACAAGCCCTCTAACCCCTCTTCCCATGAGGTGGTAGCCTGGATTCGACGGATACTTCGGGTGGAGAAGACAGGGCACAGTGGTACTCTGGATCCCAAGGTGACTGGTTGTTTAATCGTGTGCATAGAACGAGCCACTCGCTTGGTGAAG
modifications: expressed from pLNCX plasmid; CDS (1)..(165) Sequence GSE 24.2
dose of cisplatin required to activate JNK (JNK): a greater dose of cisplatin is required to activate both kinases
cell viability in response to cisplatin (293T cells): greater viability in response to cisplatin; also recorded: survival capacity to cisplatin
